The Kd is the constant that tells how readily two partners part at equilibrium.

These results are taken from patent publication US20180193457A1 (University of Washington, published 2018).

Test [1] addresses T1, wild-type FimH adhesin variant of the uropathogenic E. coli strain J96 (FimH^wt) (uropathogenic E. coli strain J96, UniProt P08191 22-300). In words: cell-based or functional assay.
Test [2] addresses T1, wild-type FimH adhesin variant of the …. In words: SPR2 (Analytical Biopharmacy Core), FimH^wt fimbriae on CM5 chip, mAb as analyte, 1:1 Langmuir model.

B1: mAb926 (antibody, V domains shown)
VH: QVQLQQSGAELATPGASVKMSCKASGYTSTNYWIHWVKQRPGQGLEWIGYINPTSGYTEYNQNFKDKATLTADKSSSTAYMQLTSLTSEDSAVYYCARGVIRDFWGQGTTLTVSS
VL: DVLMTQTPLSLPVSLGDQASISCRSSQNIVHNNGNTYLEWYLQSPGQSPKLLIYKVSNRFSGVPDRFSGSGSGTDFTLKISRVEAEDLGVYYCFQGSHVPFTFGSGTKLEIK
notes: also called mA926; mAb296
As to B1, the “half-maximal inhibitory concentration (IC50) of bacterial adhesion to mannosylated (yeast mannan) surfaces” value in test [1] is 0.4 nM. Also, binding in test [2] was put at a Kd of 0.22 nM.
